Test results published in the Human Domainome abundance scans (Beltran et al. 2025).
± gives the uncertainty stated by the source.

B1: Max-interacting protein 1, residues 70 to 120; numbered along this chain, P50539 (parent)
chain: STHNELEKNRRAHLRLCLERLKVLIPLGPDCTRHTTLGLLNKAKAHIKKLE

Variants of: B1
Assay: abundance fitness (aPCA) (normalised: wild type 0, dead -1); higher = more abundant; growth selection in yeast, the domain comes from the species named
Settings: Homo sapiens

Which abundance fitness does the source give for STHNELEKNRRAHLRLCLERLKVLIPLGPDCTRHTTLGLLFKAKAHIKKLE [N41F] here?
Its abundance fitness is -0.7 ± 0.3.

For STHNELEKNRRAHLRLCLERLKVLIPLGPDCTRHTTLGLLCKAKAHIKKLE [N41C], which abundance fitness is on record?
The abundance fitness was -0.237 ± 0.17.

Which abundance fitness does the source give for STHNELEKNRRAHLRLCLERLKVLIPLGPDCTRHTTLGLLKKAKAHIKKLE [N41K] here?
Its abundance fitness is 0.109 ± 0.33.

For STHNELEKNRRAHLRLCLERLKVLIPLGPDCTRHTTLGLLPKAKAHIKKLE [N41P], which abundance fitness is on record?
The abundance fitness was -0.44 ± 0.18.

Which abundance fitness does the source give for STHNELEKNRRAHLRLCLERLKVLIPLGPDCTRHTTLGLLIKAKAHIKKLE [N41I] here?
The abundance fitness was -0.631 ± 0.33.

Which abundance fitness does the source give for STHNELEKNRRAHLRLCLERLKVLIPLGPDCTRHTTLGLLMKAKAHIKKLE [N41M] here?
Its abundance fitness is -0.559 ± 0.27.

With STHNELEKNRRAHLRLCLERLKVLIPLGPDCTRHTTLGLLVKAKAHIKKLE [N41V] as the variant, how does the abundance fitness read?
Its abundance fitness is -0.707 ± 0.17.

Which abundance fitness does the source give for STHNELEKNRRAHLRLCLERLKVLIPLGPDCTRHTTLGLLEKAKAHIKKLE [N41E] here?
The abundance fitness was -0.139 ± 0.27.

With STHNELEKNRRAHLRLCLERLKVLIPLGPDCTRHTTLGLLAKAKAHIKKLE [N41A] as the variant, how does the abundance fitness read?
The abundance fitness was -0.218 ± 0.2.

Which abundance fitness does the source give for STHNELEKNRRAHLRLCLERLKVLIPLGPDCTRHTTLGLLSKAKAHIKKLE [N41S] here?
Its abundance fitness is -0.09 ± 0.14.

For STHNELEKNRRAHLRLCLERLKVLIPLGPDCTRHTTLGLLTKAKAHIKKLE [N41T], which abundance fitness is on record?
The abundance fitness was -0.555 ± 0.2.

With STHNELEKNRRAHLRLCLERLKVLIPLGPDCTRHTTLGLLYKAKAHIKKLE [N41Y] as the variant, how does the abundance fitness read?
Its abundance fitness is -0.745 ± 0.34.

Which abundance fitness does the source give for STHNELEKNRRAHLRLCLERLKVLIPLGPDCTRHTTLGLLWKAKAHIKKLE [N41W] here?
The abundance fitness was -0.83 ± 0.2.

For STHNELEKNRRAHLRLCLERLKVLIPLGPDCTRHTTLGLLLKAKAHIKKLE [N41L], which abundance fitness is on record?
Its abundance fitness is -0.711 ± 0.18.

Which abundance fitness does the source give for STHNELEKNRRAHLRLCLERLKVLIPLGPDCTRHTTLGLLRKAKAHIKKLE [N41R] here?
Its abundance fitness is -0.044 ± 0.1.

For STHNELEKNRRAHLRLCLERLKVLIPLGPDCTRHTTLGLLDKAKAHIKKLE [N41D], which abundance fitness is on record?
Its abundance fitness is -0.322 ± 0.17.

For STHNELEKNRRAHLRLCLERLKVLIPLGPDCTRHTTLGLLNWAKAHIKKLE [K42W], which abundance fitness is on record?
The abundance fitness was -0.23 ± 0.087.

For STHNELEKNRRAHLRLCLERLKVLIPLGPDCTRHTTLGLLNEAKAHIKKLE [K42E], which abundance fitness is on record?
The abundance fitness was -0.716 ± 0.17.

For STHNELEKNRRAHLRLCLERLKVLIPLGPDCTRHTTLGLLNMAKAHIKKLE [K42M], which abundance fitness is on record?
The abundance fitness was -0.452 ± 0.16.

Which abundance fitness does the source give for STHNELEKNRRAHLRLCLERLKVLIPLGPDCTRHTTLGLLNTAKAHIKKLE [K42T] here?
Its abundance fitness is -0.196 ± 0.12.

With STHNELEKNRRAHLRLCLERLKVLIPLGPDCTRHTTLGLLNLAKAHIKKLE [K42L] as the variant, how does the abundance fitness read?
Its abundance fitness is -0.641 ± 0.1.

For STHNELEKNRRAHLRLCLERLKVLIPLGPDCTRHTTLGLLNRAKAHIKKLE [K42R], which abundance fitness is on record?
The abundance fitness was -0.069 ± 0.076.

With STHNELEKNRRAHLRLCLERLKVLIPLGPDCTRHTTLGLLNPAKAHIKKLE [K42P] as the variant, how does the abundance fitness read?
The abundance fitness was -0.808 ± 0.16.

Which abundance fitness does the source give for STHNELEKNRRAHLRLCLERLKVLIPLGPDCTRHTTLGLLNHAKAHIKKLE [K42H] here?
The abundance fitness was -0.813 ± 0.19.

For STHNELEKNRRAHLRLCLERLKVLIPLGPDCTRHTTLGLLNGAKAHIKKLE [K42G], which abundance fitness is on record?
The abundance fitness was -0.421 ± 0.08.

With STHNELEKNRRAHLRLCLERLKVLIPLGPDCTRHTTLGLLNSAKAHIKKLE [K42S] as the variant, how does the abundance fitness read?
Its abundance fitness is -0.338 ± 0.094.

Which abundance fitness does the source give for STHNELEKNRRAHLRLCLERLKVLIPLGPDCTRHTTLGLLNAAKAHIKKLE [K42A] here?
The abundance fitness was -0.319 ± 0.095.

Which abundance fitness does the source give for STHNELEKNRRAHLRLCLERLKVLIPLGPDCTRHTTLGLLNNAKAHIKKLE [K42N] here?
Its abundance fitness is -0.598 ± 0.18.

For STHNELEKNRRAHLRLCLERLKVLIPLGPDCTRHTTLGLLNIAKAHIKKLE [K42I], which abundance fitness is on record?
The abundance fitness was -0.284 ± 0.16.

Which abundance fitness does the source give for STHNELEKNRRAHLRLCLERLKVLIPLGPDCTRHTTLGLLNFAKAHIKKLE [K42F] here?
The abundance fitness was -0.256 ± 0.13.

Which abundance fitness does the source give for STHNELEKNRRAHLRLCLERLKVLIPLGPDCTRHTTLGLLNDAKAHIKKLE [K42D] here?
Its abundance fitness is -0.992 ± 0.18.

For STHNELEKNRRAHLRLCLERLKVLIPLGPDCTRHTTLGLLNCAKAHIKKLE [K42C], which abundance fitness is on record?
The abundance fitness was -0.185 ± 0.1.

Which abundance fitness does the source give for STHNELEKNRRAHLRLCLERLKVLIPLGPDCTRHTTLGLLNYAKAHIKKLE [K42Y] here?
Its abundance fitness is -0.684 ± 0.15.

With STHNELEKNRRAHLRLCLERLKVLIPLGPDCTRHTTLGLLNQAKAHIKKLE [K42Q] as the variant, how does the abundance fitness read?
Its abundance fitness is -0.44 ± 0.13.

With STHNELEKNRRAHLRLCLERLKVLIPLGPDCTRHTTLGLHNKAKAHIKKLE [L40H] as the variant, how does the abundance fitness read?
Its abundance fitness is -0.86 ± 0.32.

For STHNELEKNRRAHLRLCLERLKVLIPLGPDCTRHTTLGLTNKAKAHIKKLE [L40T], which abundance fitness is on record?
The abundance fitness was -0.68 ± 0.15.

For STHNELEKNRRAHLRLCLERLKVLIPLGPDCTRHTTLGLANKAKAHIKKLE [L40A], which abundance fitness is on record?
The abundance fitness was -0.553 ± 0.11.

With STHNELEKNRRAHLRLCLERLKVLIPLGPDCTRHTTLGLENKAKAHIKKLE [L40E] as the variant, how does the abundance fitness read?
Its abundance fitness is -0.857 ± 0.13.

Which abundance fitness does the source give for STHNELEKNRRAHLRLCLERLKVLIPLGPDCTRHTTLGLQNKAKAHIKKLE [L40Q] here?
The abundance fitness was -0.933 ± 0.19.

Which abundance fitness does the source give for STHNELEKNRRAHLRLCLERLKVLIPLGPDCTRHTTLGLWNKAKAHIKKLE [L40W] here?
Its abundance fitness is 0.323 ± 0.083.

With STHNELEKNRRAHLRLCLERLKVLIPLGPDCTRHTTLGLMNKAKAHIKKLE [L40M] as the variant, how does the abundance fitness read?
Its abundance fitness is -0.098 ± 0.13.

For STHNELEKNRRAHLRLCLERLKVLIPLGPDCTRHTTLGLSNKAKAHIKKLE [L40S], which abundance fitness is on record?
Its abundance fitness is -0.91 ± 0.12.

With STHNELEKNRRAHLRLCLERLKVLIPLGPDCTRHTTLGLRNKAKAHIKKLE [L40R] as the variant, how does the abundance fitness read?
The abundance fitness was -0.698 ± 0.088.

Which abundance fitness does the source give for STHNELEKNRRAHLRLCLERLKVLIPLGPDCTRHTTLGLDNKAKAHIKKLE [L40D] here?
The abundance fitness was -1.13 ± 0.23.

Which abundance fitness does the source give for STHNELEKNRRAHLRLCLERLKVLIPLGPDCTRHTTLGLYNKAKAHIKKLE [L40Y] here?
Its abundance fitness is -0.617 ± 0.33.

With STHNELEKNRRAHLRLCLERLKVLIPLGPDCTRHTTLGLCNKAKAHIKKLE [L40C] as the variant, how does the abundance fitness read?
Its abundance fitness is -0.926 ± 0.16.

For STHNELEKNRRAHLRLCLERLKVLIPLGPDCTRHTTLGLPNKAKAHIKKLE [L40P], which abundance fitness is on record?
Its abundance fitness is -0.89 ± 0.21.

With STHNELEKNRRAHLRLCLERLKVLIPLGPDCTRHTTLGLKNKAKAHIKKLE [L40K] as the variant, how does the abundance fitness read?
The abundance fitness was -0.793 ± 0.24.

For STHNELEKNRRAHLRLCLERLKVLIPLGPDCTRHTTLGLNNKAKAHIKKLE [L40N], which abundance fitness is on record?
Its abundance fitness is -0.584 ± 0.3.

Which abundance fitness does the source give for STHNELEKNRRAHLRLCLERLKVLIPLGPDCTRHTTLGLVNKAKAHIKKLE [L40V] here?
Its abundance fitness is -0.099 ± 0.085.

Which abundance fitness does the source give for STHNELEKNRRAHLRLCLERLKVLIPLGPDCTRHTTLGLFNKAKAHIKKLE [L40F] here?
The abundance fitness was 0.033 ± 0.11.
